{
  "source": "patent US12448429B2",
  "about": "“T cell receptors specific to b-cell maturation antigen for treatment of cancer” (Dana-Farber Cancer Institute, Inc., priority 2019, dated 2025)",
  "key": {"HLA-A2 [1]": {"target": "T1, HLA-A2 (Homo sapiens, UniProt P04439, D140Y/D185E/D98H/E176V/E277Q/G131W/G231S/I119V/I121R/I166T/I218V/L300P/L318F/N151K/N90K/P208A/P217A/Q86G/Q94H/R138H/R169H/T345S)", "T1 construct": "endogenous in cells; host or cells: T2 cell line (human B and T cell hybrid), provided by Dr. J. Molldrem", "assay": "HLA-A2 binding affinity of BCMA peptides on T2 cells (HLA-A2 up-regulation, MFI by flow cytometry)", "details": "for HLA-A2 binding affinity among the six native peptides: dose-dependent, Example 12; for HLA-A2 specificity (HLA-A2 binding capacity, MFI): six native BCMA peptides compared, T2 cells pulsed overnight with 0-200 μg/ml peptide, FIG. 2; for change of HLA-A2 binding affinity of heteroclitic peptide compared to its native peptide: T2 cells, FIG. 3, Example 12: n=3, p<0.05", "method": "The listed BCMA peptides were evaluated for HLA-A2-specific binding capacity using the T2 cell line. In the assay, T2 cells were washed, resuspended in serum-free AIM-V medium to a final concentration of 1×10^6 cells/ml and transferred into wells of a 24-well tissue culture plate. The cells were pulsed with different concentrations of respective BCMA peptide (0-200 μg/ml) plus 3 μg/ml human […] (Sigma) and incubated at 37° C., 5% CO2 in humidified air. Following overnight incubation, the cells were washed, stained with mouse anti-human HLA-A2-FITC mAb for 15 minutes at 4° C., washed and analyzed using a FACSort™ flow cytometer with CellQuest™ v2.1 software (Becton Dickinson, San Jose, Calif.). […] Among the BCMA peptides evaluated, “#4. […] (FIG. 2).\n(§1) The native and heteroclitic BCMA peptides were examined for HLA-A2 binding stability using the T2 cell line. T2 cells were pulsed with the respective peptide. After overnight incubation, the cells were washed to remove unbound peptide; they were evaluated for binding affinity as shown above and stability as following. The cells were incubated with 10 μg/ml Brefeldin A (Sigma) at 37° C. and 5% CO2 for 1 hour to block cell surface expression of newly synthesized HLA-A2 molecules. Peptide/HLA-A2 binding stability was evaluated at 0, 2, 4, 6 and 18 hours post-Brefeldin A treatment. Following the incubation period, the cells were harvested, washed, stained with mouse anti-human HLA-A2-FITC mAb and analyzed by flow cytometry. […] Therefore, the Heteroclitic #4 BCMA72-80 (YLMFLLRKI (SEQ ID NO: 37)) peptide was selected for further evaluation of its immunogenic potential to generate MM-specific cytotoxic T cells (CTLs).\n(§2) T2 cells were pulsed overnight with various doses of peptide plus β2-microglobulin (3 μg/ml) (Sigma, St Louis, Mo.). Following overnight incubation, the cells were stained with HLA-A2-PE mAb and analyzed using a FACSCanto™ flow cytometer (BD). Peptide/HLA-A2 complex stability was measured on peptide loaded T2 cells at 0, 2, 4, 6 and 14 hours post-brefeldin A treatment by staining with HLA-A2-PE mAb and flow cytometric analysis."}, "HLA-A2 [2]": {"target": "T1, HLA-A2", "assay": "Peptide/HLA-A2 binding stability on peptide-pulsed T2 cells after Brefeldin A treatment", "details": "for HLA-A2 stability (and affinity) of heteroclitic peptides: 0, 2, 4, 6 and 14 hours post-brefeldin A, compared with native peptides and HIV-Gag77-85 positive control", "method": "as §1, §2"}, "[3]": {"details": "listed as heteroclitic BCMA72-80"}},
  "data": [
    {"sequence": "AILWTCLGL [#5. BCMA54-62]", "values": [
      {"measurement": "HLA-A2 binding affinity among the six native peptides", "setting": "HLA-A2 [1]", "result": "highest HLA-A2 binding affinity"},
      {"measurement": "HLA-A2 specificity (HLA-A2 binding capacity, MFI)", "setting": "HLA-A2 [1]", "result": "second highest level"}
    ]},
    {"sequence": "VLMFLLRKI [#4. BCMA72-80]", "values": [
      {"measurement": "HLA-A2 binding affinity among the six native peptides", "setting": "HLA-A2 [1]", "result": "highest HLA-A2 binding affinity"},
      {"measurement": "HLA-A2 specificity (HLA-A2 binding capacity, MFI)", "setting": "HLA-A2 [1]", "result": "highest level of HLA-A2 specificity"}
    ]},
    {"sequence": "YILWTCLGL [Heteroclitic #5 BCMA54-62]", "values": [
      {"measurement": "HLA-A2 stability (and affinity) of heteroclitic peptides", "setting": "HLA-A2 [2]", "result": "further enhanced"},
      {"measurement": "change of HLA-A2 binding affinity of heteroclitic peptide compared to its native peptide", "setting": "HLA-A2 [1]", "result": "increased from their native peptide"},
      {"measurement": "change of HLA-A2 binding affinity of heteroclitic peptide compared to its native peptide", "setting": "HLA-A2 [1]; listed as heteroclitic hBCMA54-62", "result": "highest increase in HLA-A2 binding affinity"}
    ]},
    {"sequence": "YLMFLLRKI [Heteroclitic #4 BCMA72-80]", "values": [
      {"measurement": "HLA-A2 stability (and affinity) of heteroclitic peptides", "setting": "HLA-A2 [2]; listed as BCMA72-80 (YLMFLLRKI (SEQ ID NO: 37))", "result": "highest level of HLA-A2 affinity and stability"},
      {"measurement": "HLA-A2 stability (and affinity) of heteroclitic peptides", "setting": "HLA-A2 [2]; [3]", "result": "further enhanced"},
      {"measurement": "HLA-A2 binding stability compared to the native peptide", "setting": "HLA-A2 [2]; 0, 2, 4, 6 and 18 hours post-Brefeldin A, 50 ug/ml, FIG. 4", "result": "significant improvement"},
      {"measurement": "change of HLA-A2 binding affinity of heteroclitic peptide compared to its native peptide", "setting": "HLA-A2 [1]", "result": "increased from their native peptide"},
      {"measurement": "change of HLA-A2 binding affinity of heteroclitic peptide compared to its native peptide", "setting": "HLA-A2 [1]; [3]", "result": "highest increase in HLA-A2 binding affinity"}
    ]},
    {"sequence": "YQNEYFDSL [heteroclite BCMA9-17]", "values": [
      {"measurement": "change of HLA-A2 binding affinity of heteroclitic peptide compared to its native peptide", "setting": "HLA-A2 [1]", "result": "did not alter its HLA-A2 affinity status"}
    ]}
  ]
}
